US7422883

Molecular target: β6 Δ746-764 deletion mutant expressed in SW480 cells (human) (UniProt P06756)
Experiment: β6 immunoprecipitation (R6G9) from SW480 transfectants, blot with E10 (FIG. 27B)

β6 Δ746-764 deletion mutant expressed in SW480 cells (human), sequence (chain, as listed by the source mutant, chain 1 of 2): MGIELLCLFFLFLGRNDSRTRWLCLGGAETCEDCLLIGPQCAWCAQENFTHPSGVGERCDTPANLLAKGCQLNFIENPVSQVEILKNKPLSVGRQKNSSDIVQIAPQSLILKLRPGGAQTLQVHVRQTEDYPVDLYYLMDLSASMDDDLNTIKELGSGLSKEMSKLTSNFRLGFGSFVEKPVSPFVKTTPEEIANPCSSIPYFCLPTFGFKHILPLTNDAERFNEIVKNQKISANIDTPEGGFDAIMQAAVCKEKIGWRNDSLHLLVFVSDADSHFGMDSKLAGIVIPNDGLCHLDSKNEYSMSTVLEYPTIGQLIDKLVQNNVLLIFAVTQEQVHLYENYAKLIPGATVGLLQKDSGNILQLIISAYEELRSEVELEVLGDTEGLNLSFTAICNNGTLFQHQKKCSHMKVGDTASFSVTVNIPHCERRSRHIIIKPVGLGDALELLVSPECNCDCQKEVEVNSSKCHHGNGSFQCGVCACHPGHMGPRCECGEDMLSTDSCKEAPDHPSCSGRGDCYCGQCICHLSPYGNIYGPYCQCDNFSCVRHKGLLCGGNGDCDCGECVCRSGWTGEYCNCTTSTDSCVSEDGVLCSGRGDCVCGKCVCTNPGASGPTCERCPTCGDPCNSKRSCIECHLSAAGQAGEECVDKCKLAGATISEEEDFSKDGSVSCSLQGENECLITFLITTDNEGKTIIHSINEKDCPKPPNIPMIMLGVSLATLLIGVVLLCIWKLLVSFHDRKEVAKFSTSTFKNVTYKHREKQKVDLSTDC
β6 Δ746-764 deletion mutant expressed in SW480 cells (human), sequence (P06756 31-1048, stated change not applied, chain 2 of 2): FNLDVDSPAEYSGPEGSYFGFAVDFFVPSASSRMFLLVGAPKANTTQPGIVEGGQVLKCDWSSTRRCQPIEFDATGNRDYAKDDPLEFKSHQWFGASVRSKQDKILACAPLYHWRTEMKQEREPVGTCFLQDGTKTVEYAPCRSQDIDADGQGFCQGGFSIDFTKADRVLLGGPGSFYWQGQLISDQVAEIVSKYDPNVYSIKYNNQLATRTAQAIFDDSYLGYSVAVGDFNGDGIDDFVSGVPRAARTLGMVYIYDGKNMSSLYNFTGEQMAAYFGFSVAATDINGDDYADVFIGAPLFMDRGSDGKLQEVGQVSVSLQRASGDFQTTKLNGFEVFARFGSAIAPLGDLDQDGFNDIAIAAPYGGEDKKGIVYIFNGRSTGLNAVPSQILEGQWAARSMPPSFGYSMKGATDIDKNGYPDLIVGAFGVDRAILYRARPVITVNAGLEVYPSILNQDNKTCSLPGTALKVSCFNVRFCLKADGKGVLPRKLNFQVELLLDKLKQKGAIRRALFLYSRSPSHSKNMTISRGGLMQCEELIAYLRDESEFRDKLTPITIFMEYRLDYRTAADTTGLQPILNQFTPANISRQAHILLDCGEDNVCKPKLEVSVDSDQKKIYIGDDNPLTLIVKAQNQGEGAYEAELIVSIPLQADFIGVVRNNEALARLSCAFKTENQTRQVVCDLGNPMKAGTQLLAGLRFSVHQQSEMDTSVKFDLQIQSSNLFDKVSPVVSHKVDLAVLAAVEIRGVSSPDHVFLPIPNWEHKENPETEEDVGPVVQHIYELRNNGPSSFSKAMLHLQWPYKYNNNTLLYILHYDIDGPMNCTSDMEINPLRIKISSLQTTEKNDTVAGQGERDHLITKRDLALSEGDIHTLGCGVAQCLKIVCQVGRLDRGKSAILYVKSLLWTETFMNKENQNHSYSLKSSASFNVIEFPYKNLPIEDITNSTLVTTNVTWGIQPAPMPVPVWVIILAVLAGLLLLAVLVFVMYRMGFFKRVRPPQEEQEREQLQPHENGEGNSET

For “ERK (endogenous ERK1/2, band at the position of ERK2, in lysates of human cell lines) (from UniProt P28482 2-360)”, the reduction of β6-bound ERK against the wild type receptor was > 75%.
